These results are taken from article PMC10651859, “Aptamer-based gold nanoparticle aggregates for ultrasensitive amplification-free detection of PSMA”.

Series [1] deals with T1, hrPSMA (human recombinant Prostate Specific Membrane Antigen, Sinobiological) (human, UniProt Q04609 44-750). Kind of series: AuNP aggregate disassembly (DLS size and count rate, plasmon shift); size change significant above 50 pM, count rate from 500 fM; detection thresholds, not Kd; 1x PBS pH 7.4; 37 C for 30 min stated for the initial 50 pM hrPSMA screening. To be noted: protein: commercial; chain copies: 2; label: 13 nm gold nanoparticles on Rev1 and Rev2; aPSMA 1-16 paired with Rev1, 17-30 with Rev2; 3' aptamer portion single-stranded; many copies per aggregate.
T1 sequence (Q04609 44-750): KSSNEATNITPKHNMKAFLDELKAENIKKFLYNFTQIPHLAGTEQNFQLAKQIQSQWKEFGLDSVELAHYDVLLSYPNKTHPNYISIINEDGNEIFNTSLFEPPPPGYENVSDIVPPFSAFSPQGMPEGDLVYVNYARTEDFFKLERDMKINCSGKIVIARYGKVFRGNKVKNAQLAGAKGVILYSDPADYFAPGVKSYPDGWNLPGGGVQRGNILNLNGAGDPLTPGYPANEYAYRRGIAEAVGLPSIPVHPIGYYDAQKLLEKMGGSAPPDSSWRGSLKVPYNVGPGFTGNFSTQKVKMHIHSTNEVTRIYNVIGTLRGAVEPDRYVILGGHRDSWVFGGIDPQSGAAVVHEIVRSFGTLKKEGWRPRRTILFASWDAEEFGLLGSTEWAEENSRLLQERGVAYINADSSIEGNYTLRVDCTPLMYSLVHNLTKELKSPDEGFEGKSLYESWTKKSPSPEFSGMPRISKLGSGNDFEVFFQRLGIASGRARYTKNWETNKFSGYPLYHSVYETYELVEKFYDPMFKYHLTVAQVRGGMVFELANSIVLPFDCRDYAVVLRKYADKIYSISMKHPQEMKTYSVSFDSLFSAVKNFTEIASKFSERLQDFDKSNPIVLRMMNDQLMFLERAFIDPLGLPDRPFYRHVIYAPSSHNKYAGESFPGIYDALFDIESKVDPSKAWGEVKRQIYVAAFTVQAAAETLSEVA

Series [2] deals with PSMA on intact LNCaP SEVs (human? (LNCaP cells), UniProt Q04609 1-750). The series is described as follows: AuNP aggregate disassembly (plasmon peak shift); intact SEVs; 1x PBS pH 7.4; 37 C for 30 min stated for the initial 50 pM hrPSMA screening. The settings on record: protein: native; chain copies: 2; label: 13 nm gold nanoparticles on Rev1 and Rev2; Control 1-16 paired with Rev1, 17-30 with Rev2; 3' portion single-stranded; many copies per aggregate.
Sequence of PSMA on intact LNCaP SEVs (Q04609 whole entry): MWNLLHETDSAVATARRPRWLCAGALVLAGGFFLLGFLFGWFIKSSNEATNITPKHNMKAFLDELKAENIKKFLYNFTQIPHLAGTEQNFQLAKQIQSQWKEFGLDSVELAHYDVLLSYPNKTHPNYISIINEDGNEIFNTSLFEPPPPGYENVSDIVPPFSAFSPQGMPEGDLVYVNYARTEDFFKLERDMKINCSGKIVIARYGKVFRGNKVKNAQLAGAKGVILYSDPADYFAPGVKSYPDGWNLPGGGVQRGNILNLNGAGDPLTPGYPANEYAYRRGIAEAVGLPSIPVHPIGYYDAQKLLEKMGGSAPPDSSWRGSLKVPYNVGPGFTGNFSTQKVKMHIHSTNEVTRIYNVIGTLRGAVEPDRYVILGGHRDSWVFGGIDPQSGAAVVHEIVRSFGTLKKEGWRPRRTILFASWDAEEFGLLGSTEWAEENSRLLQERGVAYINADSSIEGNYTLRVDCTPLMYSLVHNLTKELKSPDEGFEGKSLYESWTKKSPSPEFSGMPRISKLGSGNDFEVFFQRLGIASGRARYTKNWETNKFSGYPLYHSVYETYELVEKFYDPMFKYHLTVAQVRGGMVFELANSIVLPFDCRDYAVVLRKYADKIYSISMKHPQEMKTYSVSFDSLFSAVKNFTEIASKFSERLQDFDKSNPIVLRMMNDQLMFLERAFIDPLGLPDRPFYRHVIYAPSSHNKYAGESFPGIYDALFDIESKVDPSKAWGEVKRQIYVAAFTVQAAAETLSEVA

Series [3] concerns the target T1, hrPSMA (human recombinant Prostate …). Kind of series: AuNP aggregate disassembly (DLS); hrPSMA series; no significant trend; 1x PBS pH 7.4; 37 C for 30 min stated for the initial 50 pM hrPSMA screening. To be noted: protein: commercial; chain copies: 2; label: 13 nm gold nanoparticles on Rev1 and Rev2; Control 1-16 paired with Rev1, 17-30 with Rev2; 3' portion single-stranded; many copies per aggregate.

B1: aPSMA:Rev1:Rev2 (aPSMA-AuNPs-Aggregate) (structured_DNA)
DNA 1: CTGTGACTCATCTGTGAAGGGCGGCGTTTTCGCTTTTGCGTTTTGGGTCATCTGCTTACGATAGCAATGCT
DNA 2: CACAGATGAGTCACAG
DNA 3: AAAACGCCGCCCTT
modifications: Rev1 3' C3 thiol; Rev2 5' C6 thiol
In the case of B1, the binding result in series [1] is “binds”.

B2: Control:Rev1:Rev2 (C-AuNPs-Aggregate) (structured_DNA)
DNA 1: CTGTGACTCATCTGTGAAGGGCGGCGTTTTATATGTTACCGTCTAAGTACTCTGTTCCGCGCCGTGTGTTG
DNA 2: CACAGATGAGTCACAG
DNA 3: AAAACGCCGCCCTT
modifications: Rev1 3' C3 thiol; Rev2 5' C6 thiol
In the case of B2, the binding result in series [2] and in series [3] was “no binding” in each case.
